Results taken from publication PMC2195846.

Target: Full-length Daxx linked to the Gal4 DNA binding domain (pAS2-1-Daxx) (mouse) (UniProt O35613)
Experiment: two-hybrid

UniProt O35613, sequence (O35613 whole entry, the tested form may be a part): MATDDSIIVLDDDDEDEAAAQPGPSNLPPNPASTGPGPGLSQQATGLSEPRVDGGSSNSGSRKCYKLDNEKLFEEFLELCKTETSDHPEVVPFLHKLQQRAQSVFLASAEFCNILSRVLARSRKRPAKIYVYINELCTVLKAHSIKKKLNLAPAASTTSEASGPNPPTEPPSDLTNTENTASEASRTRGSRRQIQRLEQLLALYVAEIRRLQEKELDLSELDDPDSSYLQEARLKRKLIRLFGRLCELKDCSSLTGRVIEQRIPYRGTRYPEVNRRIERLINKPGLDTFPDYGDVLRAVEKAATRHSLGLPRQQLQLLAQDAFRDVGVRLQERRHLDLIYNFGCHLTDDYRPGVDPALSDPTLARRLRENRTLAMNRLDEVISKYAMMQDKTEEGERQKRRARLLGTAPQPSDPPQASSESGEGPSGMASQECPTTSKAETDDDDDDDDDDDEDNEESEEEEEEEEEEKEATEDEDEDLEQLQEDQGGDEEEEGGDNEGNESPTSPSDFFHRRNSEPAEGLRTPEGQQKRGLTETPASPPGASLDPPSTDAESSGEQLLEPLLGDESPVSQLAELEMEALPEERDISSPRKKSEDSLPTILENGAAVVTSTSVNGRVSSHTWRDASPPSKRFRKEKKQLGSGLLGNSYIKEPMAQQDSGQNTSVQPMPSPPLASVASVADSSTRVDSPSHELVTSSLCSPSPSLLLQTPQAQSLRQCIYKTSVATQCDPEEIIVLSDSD

Full-length PML linked to the Gal4 activation domain (pACT-2-PML) (from UniProt P29590 1-882) (natural protein)
β-galactosidase expression, fold over the single-transformed colonies: 50 fold
